Assay: Thioesterase enzyme activity assay, pimeloyl-CoA to pimelate (release of CoA, Ellman's reagent)
Format: biochemical
Details: 667 μM pimeloyl-CoA, 0.8 μM enzyme, pH 7.4, 37° C., 20 min; relative to empty vector control; FIG. 8
Method: A sequence encoding an N-terminal His tag was added to the tesB gene from Escherichia coli that encodes a thioesterase (SEQ ID NO 1, see FIG. 7A), such that an N-terminal HIS tagged thioesterase could be produced. The modified tesB gene was cloned into a pET15b expression vector under control of the T7 promoter. The expression vector was transformed into a BL21[DE3] E. coli host. The resulting recombinant E. coli strain was cultivated at 37° C. in a 500 mL shake flask culture containing 50 mL Luria Broth (LB) media and antibiotic selection pressure, with shaking at 230 rpm. The culture was induced overnight at 17° C. using 0.5 mM IPTG.
The pellet from the induced shake flask culture was harvested via centrifugation. The pellet was resuspended and lysed in Y-Per™ solution (ThermoScientific, Rockford, Ill.). The cell debris was separated from the supernatant via centrifugation. […]
The enzyme activity assay was performed in triplicate in a buffer composed of 50 mM phosphate buffer (pH=7.4), 0.1 mM Ellman's reagent, and 667 μM of pimeloyl-CoA (as substrate). […] The release of Coenzyme A was monitored by absorbance at 412 nm. The absorbance associated with the substrate only control, which contained boiled enzyme, was subtracted from the active enzyme assay absorbance and compared to the empty vector control.

acceptance of pimeloyl-CoA as substrate (release of Coenzyme A, absorbance at 412 nm): accepted pimeloyl-CoA as substrate
B1: gene product of tesB: Escherichia coli thioesterase encoded by tesB, GenBank Accession No. AAA24665.1 (protein, listed as Escherichia coli)
chain: MSQALKNLLTLLNLEKIEEGLFRGQSEDLGLRQVFGGQVVGQALYAAKETVPEERLVHSFHSYFLRPGDSKKPIIYDVETLRDGNSFSARRVAAIQNGKPIFYMTASFQAPEAGFEHQKTMPSAPAPDGLPSETQIAQSLAHLLPPVLKDKFICDRPLEVRPVEFHNPLKGHVAEPHRQVWIRANGSVPDDLRVHQYLLGYASDLNFLPVALQPHGIGFLEPGIQIATIDHSMWFHRPFNLNEWLLYSVESTSASSARGFVRGEFYTQDGVLVASTVQEGVMRNHN
